Tests used:
[1] = molecular target: HIV-1 gp120 monomer, strain HxBc2 (HIV-1, strain HxBc2) (UniProt P04578); test: SPR
[2] = molecular target: HA H3 top domain (not stated (Figure 2 shows HA of influenza A virus X-31)) (UniProt P03437); test: ELISA

| Substance | Kd [1] [nM] | Kd [2] [nM] |
| --- | --- | --- |
| CVN2L0, engineered linker-free domain-swapped dimer of cyanovirin-N (designed binder) | 49 | – |
| SUMO-CVN2L0 fusion protein (designed binder) | – | 554 |

Reference: article PMC8231982
